Experimental data: paper PMC5070455 (Biophysics, 2012)

Molecular target: the molecule itself
Test: negative-stain electron microscopy

B1: desmin (natural protein, chicken, UniProt P02542 1-464, looked up)
chain: MSQSYSSSQRVSSYRRTFGGGTSPVFPRASFGSRGSGSSVTSRVYQVSRTSAVPTLSTFRTTRVTPLRTYQSAYQGAGELLDFSLADAMNQEFLQTRTNEKVELQELNDRFANYIEKVRFLEQQNALMVAEVNRLRGKEPTRVAEMYEEELRELRRQVDALTGQRARVEVERDNLLDDLQKLKQRLQEEIQLKEEAENNLAAFRADVDAATLARIDLERRIESLQEEIAFLKKVHEEEIRELQAQLQEQHIQVEMDISKPDLTAALRDIRAQYESIAAKNIAEAEEWYKSKVSDLTQAANKNNDALRQAKQEMLEYRHQIQSYTCEIDALKGTNDSLMRQMREMEERFAGEAGGYQDTIARLEEEIRHLKDEMARHLREYQDLLNVKMALDVEIATYRKLLEGEENRISIPMHQTFASALNFRETSPDQRGSEVHTKKTVMIKTIETRDGEVVSEATQQQHEVL
B1: binds.
